Where no end group is shown, it is not given here.
Assay: isoelectric focusing in polyacrylamide slab gel, mobility compared with commercial pI markers
Assay type: physicochemical
Details: fluorescence-labeled (5-carboxytetramethylrhodamine) oligopeptide, carrier ampholyte pH 3.5-10, vs pI calibration kit 3-10 (range pI 9.30-3.5)
Source text: In the present invention, pI of each marker for isoelectric focusing with fluorescence detection can be determined by performing isoelectric focusing to compare a mobility thereof with those of commercially available markers for isoelectric focusing or to directly measure pH at a position of migration of the labeled peptide. The isoelectric focusing preferably applicable is isoelectric focusing in polyacrylamide slab gel (see […]., Isoelectric Focusing: Theory, Methodology and Applications, Elsevier, Amsterdam, 1983). […] The focusing conditions were as follows: started at […] and focusing the voltage was increased at intervals of 15 minutes to 100 V, 200 V, 400 V, and 600 V. After focusing, fluorescence-labeled oligopeptides in the gel were photographed through an orange filter under illumination with ultraviolet light, thereby checking focusing positions thereof. […] After staining, de-stained with a mixed solvent of methanol and acetic acid to obtain a clear background, thereby checking the focusing positions. FIG. 5,6,and 7 show the focusing positions of the 24 fluorescence-labeled oligopeptides obtained and the isoelectric focusing markers commercially available.
For “DDEHHHKR [No 20, oligopeptide labeled with 5-carboxytetramethylrhodamine]”, the “pI Observed” value was 4.70. For “DEYHKR [No 12, oligopeptide labeled with 5-carboxytetramethylrhodamine]”, the “pI Observed” value was 5.55. For “EHHHKR [No 17, oligopeptide labeled with 5-carboxytetramethylrhodamine]”, the “pI Observed” value was 7.90. In the case of “Glu--His--Lys--Arg (EHKR; printed: Glu--His--Lys--Arg) [No 9, oligopeptide labeled with 5-carboxytetramethylrhodamine]”, the “pI Observed” value is reported as 7.65. For “Tyr--Tyr--His--Lys--Arg (YYHKR; printed: Tyr--Tyr--His--Lys--Arg) [No 8, oligopeptide labeled with 5-carboxytetramethylrhodamine]”, the “pI Observed” value was greater than 9.30.

Assay: not given
Details: unlabeled protein; cited from earlier work
For “bovine carbonic anhydrase [reference compound]”, the “pI (known) of conventional protein pI marker” value (from here on “pI (known)”) is given as 6.00. For “human carbonic anhydrase [reference compound]”, the “pI (known)” value is listed as 6.50. In the case of human hemoglobin A [reference compound], the “pI (known)” value is given as 7.10. For phycocyanin [reference compound], the “pI (known)” value is given as 4.65. In the case of β-lactoglobulin B [reference compound], the “pI (known)” value is listed as 5.10.
